Measurements from PMC11264237 (Archives of biochemistry and biophysics, 2024).

B1: BIG2 (natural protein, human (endogenous in HeLa), UniProt Q9Y6D5 1-1785, looked up)
chain: MQESQTKSMFVSRALEKILADKEVKRPQHSQLRRACQVALDEIKAEIEKQRLGTAAPPKANFIEADKYFLPFELACQSKSPRVVSTSLDCLQKLIAYGHITGNAPDSGAPGKRLIDRIVETICSCFQGPQTDEGVQLQIIKALLTAVTSPHIEIHEGTILQTVRTCYNIYLASKNLINQTTAKATLTQMLNVIFTRMENQVLQEARELEKPIQSKPQSPVIQAAAVSPKFVRLKHSQAQSKPTTPEKTDLTNGEHARSDSGKVSTENGDAPRERGSSLSGTDDGAQEVVKDILEDVVTSAIKEAAEKHGLTEPERVLGELECQECAIPPGVDENSQTNGIADDRQSLSSADNLESDAQGHQVAARFSHVLQKDAFLVFRSLCKLSMKPLGEGPPDPKSHELRSKVVSLQLLLSVLQNAGPVFRTHEMFINAIKQYLCVALSKNGVSSVPDVFELSLAIFLTLLSNFKMHLKMQIEVFFKEIFLNILETSTSSFEHRWMVIQTLTRICADAQCVVDIYVNYDCDLNAANIFERLVNDLSKIAQGRSGHELGMTPLQELSLRKKGLECLVSILKCMVEWSKDLYVNPNHQTSLGQERLTDQEIGDGKGLDMARRCSVTSMESTVSSGTQTTVQDDPEQFEVIKQQKEIIEHGIELFNKKPKRGIQFLQEQGMLGTSVEDIAQFLHQEERLDSTQVGDFLGDSARFNKEVMYAYVDQLDFCEKEFVSALRTFLEGFRLPGEAQKIDRLMEKFAARYIECNQGQTLFASADTAYVLAYSIIMLTTDLHSPQVKNKMTKEQYIKMNRGINDSKDLPEEYLSSIYEEIEGKKIAMKETKELTIATKSTKQNVASEKQRRLLYNLEMEQMAKTAKALMEAVSHAKAPFTSATHLDHVRPMFKLVWTPLLAAYSIGLQNCDDTEVASLCLEGIRCAIRIACIFGMQLERDAYVQALARFSLLTASSSITEMKQKNIDTIKTLITVAHTDGNYLGNSWHEILKCISQLELAQLIGTGVKTRYLSGSGREREGSLKGHTLAGEEFMGLGLGNLVSGGVDKRQMASFQESVGETSSQSVVVAVDRIFTGSTRLDGNAIVDFVRWLCAVSMDELASPHHPRMFSLQKIVEISYYNMNRIRLQWSRIWHVIGDHFNKVGCNPNEDVAIFAVDSLRQLSMKFLEKGELANFRFQKDFLRPFEHIMKKNRSPTIRDMAIRCIAQMVNSQAANIRSGWKNIFAVFHQAASDHDGNIVELAFQTTCHIVTTIFQHHFPAAIDSFQDAVKCLSEFACNAAFPDTSMEAIRLIRFCGKYVSERPRVLQEYTSDDMNVAPGDRVWVRGWFPILFELSCIINRCKLDVRTRGLTVMFEIMKSYGHTFEKHWWQDLFRIVFRIFDNMKLPEQLSEKSEWMTTTCNHALYAICDVFTQFYEALNEVLLSDVFAQLQWCVKQDNEQLARSGTNCLENLVISNGEKFSPEVWDETCNCMLDIFKTTIPHVLLTWRPVGMEEDSSEKHLDVDLDRQSLSSIDKNPSERGQSQLSNPTDDSWKGRPYANQKLFASLLIKCVVQLELIQTIDNIVFYPATSKKEDAEHMVAAQQDTLDADIHIETEDQGMYKYMSSQHLFKLLDCLQESHSFSKAFNSNYEQRTVLWRAGFKGKSKPNLLKQETSSLACCLRILFRMYVDENRRDSWEEIQQRLLTVCSEALAYFITVNSESHREAWTSLLLLLLTKTLKINDEKFKAHASMYYPYLCEIMQFDLIPELRAVLRKFFLRIGVVYKIWIPEEPSQVPAALSPVW
B2: BIG1 (natural protein, human (endogenous in HeLa), UniProt Q9Y6D6 1-1849, looked up)
chain: MYEGKKTKNMFLTRALEKILADKEVKKAHHSQLRKACEVALEEIKAETEKQSPPHGEAKAGSSTLPPVKSKTNFIEADKYFLPFELACQSKCPRIVSTSLDCLQKLIAYGHLTGNAPDSTTPGKKLIDRIIETICGCFQGPQTDEGVQLQIIKALLTAVTSQHIEIHEGTVLQAVRTCYNIYLASKNLINQTTAKATLTQMLNVIFARMENQALQEAKQMEKERHRQHHHLLQSPVSHHEPESPQLRYLPPQTVDHISQEHEGDLDLHTNDVDKSLQDDTEPENGSDISSAENEQTEADQATAAETLSKNEVLYDGENHDCEEKPQDIVQNIVEEMVNIVVGDMGEGTTINASADGNIGTIEDGSDSENIQANGIPGTPISVAYTPSLPDDRLSVSSNDTQESGNSSGPSPGAKFSHILQKDAFLVFRSLCKLSMKPLSDGPPDPKSHELRSKILSLQLLLSILQNAGPIFRTNEMFINAIKQYLCVALSKNGVSSVPEVFELSLSIFLTLLSNFKTHLKMQIEVFFKEIFLYILETSTSSFDHKWMVIQTLTRICADAQSVVDIYVNYDCDLNAANIFERLVNDLSKIAQGRGSQELGMSNVQELSLRKKGLECLVSILKCMVEWSKDQYVNPNSQTTLGQEKPSEQEMSEIKHPETINRYGSLNSLESTSSSGIGSYSTQMSGTDNPEQFEVLKQQKEIIEQGIDLFNKKPKRGIQYLQEQGMLGTTPEDIAQFLHQEERLDSTQVGEFLGDNDKFNKEVMYAYVDQHDFSGKDFVSALRMFLEGFRLPGEAQKIDRLMEKFAARYLECNQGQTLFASADTAYVLAYSIIMLTTDLHSPQVKNKMTKEQYIKMNRGINDSKDLPEEYLSAIYNEIAGKKISMKETKELTIPTKSSKQNVASEKQRRLLYNLEMEQMAKTAKALMEAVSHVQAPFTSATHLEHVRPMFKLAWTPFLAAFSVGLQDCDDTEVASLCLEGIRCAIRIACIFSIQLERDAYVQALARFTLLTVSSGITEMKQKNIDTIKTLITVAHTDGNYLGNSWHEILKCISQLELAQLIGTGVKPRYISGTVRGREGSLTGTKDQAPDEFVGLGLVGGNVDWKQIASIQESIGETSSQSVVVAVDRIFTGSTRLDGNAIVDFVRWLCAVSMDELLSTTHPRMFSLQKIVEISYYNMGRIRLQWSRIWEVIGDHFNKVGCNPNEDVAIFAVDSLRQLSMKFLEKGELANFRFQKDFLRPFEHIMKRNRSPTIRDMVVRCIAQMVNSQAANIRSGWKNIFSVFHLAASDQDESIVELAFQTTGHIVTLVFEKHFPATIDSFQDAVKCLSEFACNAAFPDTSMEAIRLIRHCAKYVSDRPQAFKEYTSDDMNVAPEDRVWVRGWFPILFELSCIINRCKLDVRTRGLTVMFEIMKTYGHTYEKHWWQDLFRIVFRIFDNMKLPEQQTEKAEWMTTTCNHALYAICDVFTQYLEVLSDVLLDDIFAQLYWCVQQDNEQLARSGTNCLENVVILNGEKFTLEIWDKTCNCTLDIFKTTIPHALLTWRPNSGETAPPPPSPVSEKPLDTISQKSVDIHDSIQPRSVDNRPQAPLVSASAVNEEVSKIKSTAKFPEQKLFAALLIKCVVQLELIQTIDNIVFFPATSKKEDAENLAAAQRDAVDFDVRVDTQDQGMYRFLTSQQLFKLLDCLLESHRFAKAFNSNNEQRTALWKAGFKGKSKPNLLKQETSSLACGLRILFRMYMDESRVSAWEEVQQRLLNVCSEALSYFLTLTSESHREAWTNLLLLFLTKVLKISDNRFKAHASFYYPLLCEIMQFDLIPELRAVLRRFFLRIGVVFQISQPPEQELGINKQ

Biological target: T1, GST fused to the ATP8A1 tail (amino acids 1049-1163) (human, UniProt Q9Y2Q0 1049-1163)
T1 sequence (looked up): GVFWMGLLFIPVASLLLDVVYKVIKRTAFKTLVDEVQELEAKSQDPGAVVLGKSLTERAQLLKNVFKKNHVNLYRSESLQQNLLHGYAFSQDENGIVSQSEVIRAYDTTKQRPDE
Assay: pull-down

Binder | % of total input bound to the beads
B1 | 18.5 % of total input
B2 | 24 % of total input
